Reference: article PMC3354962 (Advances in bioscience and biotechnology (Print), 2011)

Legend:
[1] = system: proteases; assay: Protease digestion, summary over the panel of proteases; format: in vitro ADME; settings: of the 9 proteases tested; 1 µU enzyme, 1 hr, 37°C, SDS-PAGE
[2] = system: Trypsin; assay: Protease digestion, SDS-PAGE: trypsin; format: in vitro ADME; settings: 1 µU trypsin, 1 hr, 37°C, Coomassie, Figure 1

## Griffithsin [GRFT]
[1]
  Number of proteases the material was resistant to: 8

## PSC-RANTES
[2]
  Appearance of peptide bands on SDS-PAGE after digestion by trypsin: reduced intensity or density rather than disappearing
